Publication PMC10397247
One block for each binder: values may come before it.

Key:
P8SHb = target: T1, P8SHb; test: two-hybrid library CCNG1;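 note: natural log of median RNA to DNA barcode read ratio; higher means stronger binding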
T1 chain: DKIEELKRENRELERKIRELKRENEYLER

P3SHb = target: T2, P3SHb; test: two-hybrid library CCNG1;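 note: natural log of median RNA to DNA barcode read ratio; higher means stronger binding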
T2 chain: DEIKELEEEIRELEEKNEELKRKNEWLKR

P5SHb = target: T3, P5SHb; test: two-hybrid library CCNG1;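 note: natural log of median RNA to DNA barcode read ratio; higher means stronger binding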
T3 chain: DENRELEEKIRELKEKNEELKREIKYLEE

P6SHb = target: T4, P6SHb; test: two-hybrid library CCNG1;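 note: natural log of median RNA to DNA barcode read ratio; higher means stronger binding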
T4 chain: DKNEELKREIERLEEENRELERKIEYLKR

P7SHb = target: T5, P7SHb; test: two-hybrid library CCNG1;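 note: natural log of median RNA to DNA barcode read ratio; higher means stronger binding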
T5 chain: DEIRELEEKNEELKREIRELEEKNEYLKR

P9SHb = target: T6, P9SHb; test: two-hybrid library CCNG1;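 note: natural log of median RNA to DNA barcode read ratio; higher means stronger binding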
T6 chain: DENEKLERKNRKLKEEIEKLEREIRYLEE

P4SHb = target: T7, P4SHb; test: two-hybrid library CCNG1
T7 chain: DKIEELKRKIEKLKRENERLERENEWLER

N6-AA = target: T8, N6-AA; test: two-hybrid library CCmax
T8 chain: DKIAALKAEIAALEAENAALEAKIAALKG

O16-bS = target: T9, O16-bS; test: two-hybrid library CCNG1
T9 chain: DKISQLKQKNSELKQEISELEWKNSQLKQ

O5-bS = target: T10, O5-bS; test: two-hybrid library CCNG1
T10 chain: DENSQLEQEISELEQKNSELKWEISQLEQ

O7-bS = target: T11, O7-bS; test: two-hybrid library CCNG1
T11 chain: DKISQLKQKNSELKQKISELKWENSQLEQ

O3-bS = target: T12, O3-bS; test: two-hybrid library CCNG1
T12 chain: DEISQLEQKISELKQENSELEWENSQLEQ

O4-bS = target: T13, O4-bS; test: two-hybrid library CCNG1
T13 chain: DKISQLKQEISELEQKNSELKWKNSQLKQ

O2-bS = target: T14, O2-bS; test: two-hybrid library CCNG1
T14 chain: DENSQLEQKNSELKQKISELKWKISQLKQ

O6-bS = target: T15, O6-bS; test: two-hybrid library CCNG1
T15 chain: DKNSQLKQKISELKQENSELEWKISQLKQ

O15-bS = target: T16, O15-bS; test: two-hybrid library CCNG1
T16 chain: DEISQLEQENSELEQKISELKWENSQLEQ

O9-bS = target: T17, O9-bS; test: two-hybrid library CCNG1
T17 chain: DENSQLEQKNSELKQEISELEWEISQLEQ

O13-bS = target: T18, O13-bS; test: two-hybrid library CCNG1
T18 chain: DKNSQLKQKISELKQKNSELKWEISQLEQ

O8-bS = target: T19, O8-bS; test: two-hybrid library CCNG1
T19 chain: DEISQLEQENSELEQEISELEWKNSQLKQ

4H40-bN = target: T20, 4H40-bN; test: two-hybrid library CCNG1
T20 chain: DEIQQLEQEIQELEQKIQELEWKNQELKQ

4H492-bN = target: T21, 4H492-bN; test: two-hybrid library CCNG1
T21 chain: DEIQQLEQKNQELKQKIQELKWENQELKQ

4H477-bN = target: T22, 4H477-bN; test: two-hybrid library CCNG1
T22 chain: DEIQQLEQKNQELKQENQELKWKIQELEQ

4H3277-bN = target: T23, 4H3277-bN; test: two-hybrid library CCNG1
T23 chain: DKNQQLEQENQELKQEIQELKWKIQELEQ

4H348-bN = target: T24, 4H348-bN; test: two-hybrid library CCNG1
T24 chain: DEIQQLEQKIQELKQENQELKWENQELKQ

4H741-bN = target: T25, 4H741-bN; test: two-hybrid library CCNG1
T25 chain: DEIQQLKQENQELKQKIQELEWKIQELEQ

4H319-bN = target: T26, 4H319-bN; test: two-hybrid library CCNG1
T26 chain: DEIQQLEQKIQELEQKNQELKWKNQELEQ

4H380-AA = target: T27, 4H380-AA; test: two-hybrid library CCmax; conditions: mean of both orientations
T27 chain: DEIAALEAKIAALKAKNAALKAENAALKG

4H3629-AA = target: T28, 4H3629-AA; test: two-hybrid library CCmax; conditions: mean of both orientations
T28 chain: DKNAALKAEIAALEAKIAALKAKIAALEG

4H2903-AA = target: T29, 4H2903-AA; test: two-hybrid library CCmax; conditions: mean of both orientations
T29 chain: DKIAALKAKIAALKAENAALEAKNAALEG

4H3094-AA = target: T30, 4H3094-AA; test: two-hybrid library CCmax; conditions: mean of both orientations
T30 chain: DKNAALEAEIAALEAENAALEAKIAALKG

4H3777-AA = target: T31, 4H3777-AA; test: two-hybrid library CCmax; conditions: mean of both orientations
T31 chain: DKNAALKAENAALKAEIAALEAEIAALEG

4H3915-AA = target: T32, 4H3915-AA; test: two-hybrid library CCmax; conditions: mean of both orientations
T32 chain: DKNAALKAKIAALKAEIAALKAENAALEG

4H235-AA = target: T33, 4H235-AA; test: two-hybrid library CCmax; conditions: mean of both orientations
T33 chain: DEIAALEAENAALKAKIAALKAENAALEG

4H2774-AA = target: T34, 4H2774-AA; test: two-hybrid library CCmax; conditions: mean of both orientations
T34 chain: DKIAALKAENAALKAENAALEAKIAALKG

4H3049-AA = target: T35, 4H3049-AA; test: two-hybrid library CCmax; conditions: mean of both orientations
T35 chain: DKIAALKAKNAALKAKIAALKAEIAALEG

4H3449-AA = target: T36, 4H3449-AA; test: two-hybrid library CCmax; conditions: mean of both orientations
T36 chain: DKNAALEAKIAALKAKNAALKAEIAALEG

4H432-AA = target: T37, 4H432-AA; test: two-hybrid library CCmax; conditions: mean of both orientations
T37 chain: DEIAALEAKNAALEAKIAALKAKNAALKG

4H2760-AA = target: T38, 4H2760-AA; test: two-hybrid library CCmax; conditions: mean of both orientations
T38 chain: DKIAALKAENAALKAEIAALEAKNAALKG

4H63-AA = target: T39, 4H63-AA; test: two-hybrid library CCmax; conditions: mean of both orientations
T39 chain: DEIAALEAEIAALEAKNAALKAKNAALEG

4H446-AA = target: T40, 4H446-AA; test: two-hybrid library CCmax; conditions: mean of both orientations
T40 chain: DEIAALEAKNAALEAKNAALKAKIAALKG

4H2580-AA = target: T41, 4H2580-AA; test: two-hybrid library CCmax; conditions: mean of both orientations
T41 chain: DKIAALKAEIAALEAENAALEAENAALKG

4H2961-AA = target: T42, 4H2961-AA; test: two-hybrid library CCmax; conditions: mean of both orientations
T42 chain: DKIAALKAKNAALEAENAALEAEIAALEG

4H249-AA = target: T43, 4H249-AA; test: two-hybrid library CCmax; conditions: mean of both orientations
T43 chain: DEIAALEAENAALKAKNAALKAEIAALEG

4H341-AA = target: T44, 4H341-AA; test: two-hybrid library CCmax
T44 chain: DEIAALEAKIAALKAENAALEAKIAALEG

4H2604-AA = target: T45, 4H2604-AA; test: two-hybrid library CCmax; conditions: mean of both orientations
T45 chain: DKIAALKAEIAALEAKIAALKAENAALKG

4H3974-AA = target: T46, 4H3974-AA; test: two-hybrid library CCmax; conditions: mean of both orientations
T46 chain: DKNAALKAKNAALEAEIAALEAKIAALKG

4H1878-AA = target: T47, 4H1878-AA; test: two-hybrid library CCmax; conditions: mean of both orientations
T47 chain: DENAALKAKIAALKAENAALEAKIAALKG

4H324-AA = target: T48, 4H324-AA; test: two-hybrid library CCmax; conditions: mean of both orientations
T48 chain: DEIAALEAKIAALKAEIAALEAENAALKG

4H2621-AA = target: T49, 4H2621-AA; test: two-hybrid library CCmax; conditions: mean of both orientations
T49 chain: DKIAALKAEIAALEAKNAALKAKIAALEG

4H2947-AA = target: T50, 4H2947-AA; test: two-hybrid library CCmax; conditions: mean of both orientations
T50 chain: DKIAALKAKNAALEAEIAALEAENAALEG

4H1593-AA = target: T51, 4H1593-AA; test: two-hybrid library CCmax; conditions: mean of both orientations
T51 chain: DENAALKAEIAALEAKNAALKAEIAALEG

4H1449-AA = target: T52, 4H1449-AA; test: two-hybrid library CCmax
T52 chain: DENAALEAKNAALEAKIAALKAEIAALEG

4H3619-AA = target: T53, 4H3619-AA; test: two-hybrid library CCmax; conditions: mean of both orientations
T53 chain: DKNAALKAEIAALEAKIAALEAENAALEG

interaction score (P8SHb): -0.0984
interaction score (P3SHb): 0.389
interaction score (P5SHb): 0.636
interaction score (P6SHb): 0.81
interaction score (P7SHb): 0.504
interaction score (P9SHb): 0.0235
interaction score (P4SHb): 1.16
Binder: DEIKELEEEIRELEEKNEELKRKNEWLKR [P3SHb]

interaction score (N6-AA): 1.66
Binder: DKIAALKAEIAALEAENAALEAKIAALKG [N6-AA]

interaction score (O16-bS): -1.78
interaction score (O5-bS): -2.23
interaction score (O7-bS): -1.16
interaction score (O3-bS): -1.55
interaction score (O4-bS): -2.17
interaction score (O2-bS): -0.819
interaction score (O6-bS): -0.545
interaction score (O15-bS): -2.27
interaction score (O9-bS): -1.08
interaction score (O13-bS): -1.65
interaction score (O8-bS): -1.08
Binder: DKNSQLKQKISELKQKNSELKWEISQLEQ [O13-bS]

interaction score (4H40-bN): 0.382
interaction score (4H492-bN): -0.916
interaction score (4H477-bN): 0.197
interaction score (4H3277-bN): -0.892
interaction score (4H348-bN): -1.38
interaction score (4H741-bN): -0.781
interaction score (O13-bS): -2.53
interaction score (4H319-bN): -0.057
Binder: DEIQQLEQKIQELEQKNQELKWKNQELEQ [4H319-bN]

interaction score (4H380-AA): -1.53
interaction score (4H3629-AA): -0.319
interaction score (4H2903-AA): -1.54
interaction score (4H3094-AA): -1.53
interaction score (4H3777-AA): -0.635
interaction score (4H3915-AA): -1.06
interaction score (4H235-AA): -1.93
interaction score (4H2774-AA): -1.47
interaction score (4H3049-AA): -0.585
interaction score (4H3449-AA): -1.65
interaction score (4H432-AA): -1.57
interaction score (4H2760-AA): -1.16
interaction score (4H63-AA): -1.09
interaction score (4H446-AA): -1.39
interaction score (4H2580-AA): -0.863
interaction score (4H2961-AA): -1.66
interaction score (4H249-AA): -1.66
interaction score (4H341-AA): -1.74
interaction score (4H2604-AA): -0.197
interaction score (4H3974-AA): 2.16
interaction score (4H1878-AA): -1.34
interaction score (4H324-AA): -0.72
interaction score (4H2621-AA): -0.636
interaction score (4H2947-AA): -1.1
interaction score (4H1593-AA): -1.66
interaction score (4H1449-AA): -0.875
interaction score (4H3619-AA): -1.1
Binder: DENAALEAKNAALEAKIAALKAEIAALEG [4H1449-AA]
